Experiment: yeast display, Sf9 membrane polyspecificity reagent, FACS + sequencing; frameworks hold sequencing errors
How it was run: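 Synthetic nanobody libraries on Saccharomyces cerevisiae BJ5465 were galactose-induced for 36–48 hours, stained 1 hour at 4 °C with 10% biotinylated, detergent-solubilized Sf9 membrane reagent and enriched on streptavidin microbeads. FACS then separated cells into low and high (top ~1%) gates by anti-HA (expression) and streptavidin (reagent binding) fluorescence. Genes were colony-PCR amplified, MiSeq 2 × 250 sequenced and CDR-length filtered. A clone's polyreactivity label is that of its gate of origin.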

Sequence	polyreactivity (PSR sort gate)
QVQLVESGGGLVQAGGSLRLSCAASGYIFRYNAMGWYRQAPGTEREFVASINWSGGRTYYADSVKGRFTLSRDNAKNTVYLQMNSLKPEDTAVYYCAAVYYVSLVYGYYVEGSYEYYYWGQGTQVTVSS	high polyreactivity
HVQLVESGGGLVQAGGSLRLSCAASGRISLFNAMGWYRQAPGKERELVAAITYTGGSTYYADSVKGRFTISRDNAKNTVYLQMNSLKPEDTAVYYCAAEYYYVYTYDYWGQGTQVTVSS	high polyreactivity
QVQLVETGGGLFHAGGSLRLSCAASGRIFVGYAMGWYIQAPGKERELVAAINSGGRTNYADSVKGRFTISRYNAKNNVYLQMNSLKPEDTAVYYCAATLRPYSSFPNRYGYWGQGTQVTVSS	low polyreactivity
QVQLVESGGGLVQAGGSLRISCAASGSTFYYYAMGWYRQAPGKERELVAAISTTGGSTYYADSVKGRFTISRDNAKNTVYLQMNSLKPEDTAVYYCNAVTRYSRVRAVSSRDSEYWGQGTQVTVSS	high polyreactivity
QVQLVESGGGLVQAGGSLRLSCAASGRTFNFYSMGCYRQAPRKERELVAAISHGDSTYYADSVKGRFTISRDNAKNTVYLQMNSLNPEDTAVYYCAASQKYYLRKYEYWGQGTQVTVSS	low polyreactivity
QVQLVESGGGLVQAGGSLRLSCAASGRIFHSYAMGWYRQAPGKERELVASITWDSTSTNYADSVKGRFTISRDNAKNTVYLQMNSLKPEDTAVYYCNADESRYGFGYDYWGQGTQVTVSS	low polyreactivity
QVQLVESGGGLVQAGGSLRLSCAASGFIFRYYAMGWSRQAPGKERELGAAITISGGSTYYADSVKGRFTISRDNAKNTVKLQMNSLKPEDTAFYYCAADSKFWYLFHGKRYDYWGQGTQGTVSS	high polyreactivity
QVQLVESGGGLVQAGGSLRLSCAASGSTFDRYAMGWYRQAPRKERELVAANSWSAGRTDYADSVKGRFTISRDNAKNTVYLQMNSLKPEDTAVYYCAADYWYRTFYGYFGYDYWGQGTQVTVSS	low polyreactivity
QVQLQESGGGLVQAGGSLRQSCAASGSNSPWSYMGRSRQAPGKEREFVASINAGTNTYYADSAKGRITISRDNATNTVYLQMNSLKPEDTAAYYCAARYWNDYYFPYWGQGTQVTVSS	low polyreactivity
QVQLVETGGGVVHAGGSLRLSCAASGRIFRVDDMGWYRKAPGQERELVATINPTGGSTSYADSVKGRFTNSRDNAKNTVYLQMNSLTTEDTAVYYCAADCWYSVRKNWSRSGSFPFDYWRQGTQVTVSS	high polyreactivity
QVQLVESGGGLVQAGGSLRLSCAASGSIFRYNAMGWYRQAPGKERELVASISISDGSTYYADSVKGRFTISRDNAKNTVYLQMNSLKPEDTAVYYCAARTRDFYYPYDYWGQGTQVTVSS	low polyreactivity
QVQLVESGGGLVQAGGSLRLSCAASGIIFTVYAMGWYRQPPGTERELVAAITSSGGRTYYADSVKGRFTISRDNAKNTVYLQMNSLKPDDTAVYYCAARRPGYVRKDDYWGQGTQVTVSS	high polyreactivity
QVQLVESGGGLVQAGGSLRLSCAASGSIFRSYAMGWYRQAPGKERELVASISRRGGSTYYADSVKGRFTISRDNAKNTVYLQMNSLKPEDTAVYYCAADHYHGYWKYDYWGQGTQVTVSS	low polyreactivity
QVQLVESGGGIVQAGGSLRISCAASGIIFQYYVMGWYRQAPGKESELVAAIEKSGGSTYYADSLKGRFTISRDYAKNTVYLQMNSLNPDDTAVYYCAATSYAHKYYGYFGAIKYEYWGQGTQVTVSS	low polyreactivity
QVQLVESGGGLVQAGGSLRLSCAASGFIFGRNAMGWYRQAPGKEREFVAAITRIGGNTYYADSVKGRFTISRDNAKNTVYLQMNSLKPEDTAVYYCAARLSYFHAYGFYWGQGTQVTVSS	high polyreactivity
QVQLVESGGGLVQAGGSLRLSCAASGFIFVYYGMGWYRQAPGKERELVAAISRSGGSTYYADSVKGRFTISRDNAKNTVYLQMNSLKPEDTAVYYCAARPDRSSQFDSWGQGTQVTVSS	high polyreactivity
QVQLVESGGGLVQAGGSLRLSCAASGSIFNLYTMGWYRQAPGKEREFVSAISSSGTSTYYADSVKGRFTISRDNAKNTVYLQMNSLKPEDTAVYYCAADWTGGFYTWYVIPYDYWGQGTQVTVSS	low polyreactivity
QVQLVESGGGLVQAGGSLRLSCAASGGTLVRYAMGWYRQAPGKERELVAAIDRDGDSTYYADSVKGRFTISRDNAKNTVYLQMNSLKPEDTAVYYCNADEIRQTDGYDYWGQGTQVTVSS	high polyreactivity
QVQLVESGGGLVQAGGSLRLSSAASGRTFYGNAMGWYRQAPGKERELVATINYSGGSTYYADSVKGRFTISRDNAKNTVYLQMNSLKPEDTAVYYCAAVDPEEFDYWGQGTQVTVSS	low polyreactivity
QVQLVESGGGLVQAGGSLRLSCAASGSIYLNYAMGWYRQAPGKERELVAGISNGGSTNYADSVKGRFTISRDNAKNTVYLQMKSLIPEDTAVYYCARPAYKSRGKRFDYWGQGTQVTVSS	low polyreactivity
QVQLVESGRGLVQAGGSLRLSCAPSGYIFAANAMGWYRQAPGKERELVAAISASGGSTYYADSVKGRFTISRDNAKNTVYLQMNSLKPEDTAVYYCYVVSDSRLYYRYAYDYWGQGTQVTVSS	high polyreactivity
QVQLVESGGGLVQAGGSLRLSCAASGGIFASNAMGWYRQAPGKERELVATITRGGSTNYADSVKGRFTISRDNAKNTVYLQLNSLKPEDTAVYYCAARFYSRAFWPAYYYWGQGTQVTVSS	high polyreactivity

Sequence	polyreactivity (PSR sort gate)
QVQLVESGGGLVQAGGSLRLSCAASGSILARNAMGWYRQAPGKERELVAAISNSGSTNYADSVKGRFTISRDNAKNTVYLQMNSLKPEDPAGYYCAKDADHGWFEYDYWGQGTQVTVSS	low polyreactivity
QVQLVESGGGLFQAGGSLRLSCAASGFTPGNVRGCYRQAPGKERELVAAISWSADSTYYADSVKGRFTISRDNAKNTVNLQMKSLKREDSAVYYCSADGVPGRAVDYEYWRQGTQVTVSS	high polyreactivity
QVQLVESGGGLVQAGGSLRLSCAATGGIFNVYVMGWYRHAPGKESEFVAAITWRGGSTYYADSVKGRFTISRDNAKNTVYLQMNSLKPEDTAVYYCNADAPFQSSSDGYQVEYWGQGTQVTVSS	low polyreactivity
QVQLVESGGGLVQAGGSLRLSCAASGRTFVGYAMGWYRQAPGKEREFVADITYDSGSTYYADSVKGRFTISRDNAKNTVYLQMNSLKPEETAVYYCAAPDYWAYTRSMDYWGQGTQVTVSS	high polyreactivity
QVQLVESGGGLVQAGGSLRLSCAASGRTFIRYAMGWYRQAPGKERELVAAISWSGDRTYYADSVKGRFTISRDNAKNTVYLQMNSLKPEDTAVYYCNAYRYLRTATFLKFDYWGQGTQVTVSS	high polyreactivity
QVQHVDSGGGLVQAGGSLRLSCAASGRTLTVYAMGWYRQAPGKERELVAAITWRGGSTYYADSVKGRFTISRDNAKNTVYLPMNSLKPADTPVDYCAAEDYTYNGGGYEYWGQGTQVTVSS	low polyreactivity
QVQLVESGGGLVQAGGSLRLSCAASGLTSEGNAMGWYRQAPGKERELVAAIDYRGGSTYYADSVKGRFTISRDNAKNSVYLQMNSLKPEDTAVYYCAADYPRGYIDDGDYWGQGTQVTVSS	low polyreactivity
QVQVVESGGGLVQAGGSLRLSCAASGINFLTNAMGWYRQAPGKERELVAAISQSGGSTYYADSVKGRFTISRDHAKNTVYLQMNSLKPEDTAVYYCAAPQRYPRFYYWGQGTQVTVSS	high polyreactivity
QVQLVESGGGLLQAGGSLRLSCAASGSILYWNAMGWYRQAPGKERELVAAITGSGGSTSYADSVKGRFTISRDNAKNTVYLQMNSLKPEDTAVYYCAALQFPTPLLLYDSWGQGTQVTVSS	low polyreactivity
QVQLVESGGGLVQEGGSLRLICAASGSIFEVNAMGWYRQAPGKERELAATITYSGGSTYYADSVKGRFTISRDNAKNTVYFQMNSLKPEDTAVYYCATDYVDWELYIYDYWGQGTQVTVSS	low polyreactivity
QVQLVESGGGLVQAGGSLRLSCAASGRIFGSYAMVWYRQVPGKERELVAASNWRGGSTFYADSVKGRFTISRDIAKNTVFLQMNSLKPDDNAVYYCSRRVYPQSCDNWGQGTQLTVSS	low polyreactivity
QVQLVESGGGLVQAGGSLRLSCAASGSIFYLYAMGWYRQAPGKERDVVAAITWRGGITNYADSVKGRFTISRYNAKNTVYLQMNSLKPEVTAVYYCAADPYRFLATELYYWGQGTQVTVSS	low polyreactivity
QVQLVESGGGLVQAGGSLRLSCAASGSIFYTYAMGWYRQAPGKERELVADITTNGGNTYYADSVKGRFTISRDNAKNTVYLQMNSLKPEDTAVYYCARDRYDEPDEGDYDYWGQGTQVTVSS	low polyreactivity
QVQLVESGGGLVQAGGSLRLSCAASGSTFEGNDMGWYRQAPGKERELVAAITTGAGTNYADSVKGRFTISRDNAKNTVYLQMNSLKPEDTAVYYCATRVYWYYDPYYSKYTYDYWGQGTQVTVSS	low polyreactivity
QVQLVESGGGLVQAGGSLRLSCAASGGTLYTYAMGWYRQAPGKEWEFVAAITVSGGRTYYADSVKGRFTISRDNAKNTVYLLMNSLKPEDTAVYYCAARYWSWRSFKVDYWGQGTQVTVSS	high polyreactivity
QDQLVESGGGLVQAGGSLRLICAASGRIFGVNAMGWYRQAPGKERELVAVISSGGSTYYADSVKGRFTISRDNAKNTVYLQMNSLKPEDTAVYYCAAEIYFFVSYDYWGQGTQVTVSS	low polyreactivity
QVQLVESGSGLVQAGGILRLSCAASGFIFDAYAMGWYRQAPGKERELVAGISIGGRTNYADSVTGRFTISRDNALNTVYLQMTSLKPEDTAVYYCAARNYRYYYGSYYRGPITNYEYWGQGNQVTVSS	low polyreactivity
QVQLVESGGGLVQAGGSLRLSCAASGLIFTYYAMGWYRQAPGKERELVAAIRVNGGSTYYADSVKGRFTISRDNAKNTVYFQMNSLKPEDTAVFYCAADYYRLRAASYLIRLNYWGQGTQVTVSS	high polyreactivity
QVQLVESGGGLVQAGGSLRLSCAASGRTSPAYAMGWYRQAPGKERELVAAISRSGGRTNYADSVKGRFTISRDNAKNTVYLQMNSLKPEDTAVYYCAVPYWYLGDNSGHDPYYYWGQGTQVTVSS	high polyreactivity
QVQLVESGGGLVQAGGSRRLSCAASGSTFRGNARGRYRQAPGKERELVAAITWSGDDTYYADSVKGRFTISRDNAKNTVYIQMNSLKPEDTAVYYCAADVQPDTRSTPEMDYWGQGTQVTVSS	low polyreactivity
QVQVVESGGGLLQAGGSLRLSCAASGSTFGWYAMGWYRQAPWKERELVAANTGDSASTYYADSVKGRFTISRDNAKNTVYLQMNSLKPEDTAVYYCAASKFSDFGYQAVIGYGYWGQGTQVTVSS	low polyreactivity

Reference: the nanobody polyreactivity screen of Harvey et al. (2022)
